{"source": "patent US20200093883", "test_system": "JNK inhibitor according to SEQ ID NO: 172 (\"XG-104\")"}
{"substance": "c-Jun N-terminal kinase (JNK) in primary mouse cortical neurons", "values": [{"measurement": "c-Jun phosphorylation (immunoblot), WT neurons stressed with 2 µM Aβ42, 10 µM XG-104", "value": "XG-104 showed -29% efficacy in order to decrease c-Jun phosphorylation (FIG. 55 C)"}]}
